Assay results from article PMC6044475.

What was measured:
Experiment in all cases: SEC
[1] = target: Eca E318Q (Enterococcus casseliflavus)
[2] = target: Eca T320A (Enterococcus casseliflavus)
[3] = target: Eca Y396A (Enterococcus casseliflavus)

Eca E318Q (natural protein) showed a stoichiometry N [1] of 2.

Work on Eca T320A (natural protein) yielded a stoichiometry N [2] of 2.

Eca Y396A (natural protein) showed a stoichiometry N [3] of 2.
